Holding throughout (experiment): cell-based or functional assay
Assay [1] has as its target hypoglycosylated dystroglycan of vector-infected MDA-MB-231 human breast cancer cells and LN18 human glioma cells (human) (UniProt Q14118).
The target in assay [2] is glycosylated dystroglycan of LARGE-expressing MDA-MB-231 human breast cancer cells and LN18 human glioma cells (human) (UniProt Q14118).
In assay [3] the target is wild type human beta1 integrin re-expressed by retrovirus in beta1 integrin-knockout E3D1cre19 MECs (human) (UniProt P05556).
The target of assay [4] is human dystroglycan (WT DG) expressed by retrovirus in DG-knockout MEpG mammary epithelial cells (human) (UniProt Q14118).
Assay [5] addresses beta1 integrin on mammary epithelial cells (MECs) (UniProt P09055).

wild type human beta1 integrin re-expressed by retrovirus in beta1 integrin-knockout E3D1cre19 MECs (human), sequence (P05556 21-798): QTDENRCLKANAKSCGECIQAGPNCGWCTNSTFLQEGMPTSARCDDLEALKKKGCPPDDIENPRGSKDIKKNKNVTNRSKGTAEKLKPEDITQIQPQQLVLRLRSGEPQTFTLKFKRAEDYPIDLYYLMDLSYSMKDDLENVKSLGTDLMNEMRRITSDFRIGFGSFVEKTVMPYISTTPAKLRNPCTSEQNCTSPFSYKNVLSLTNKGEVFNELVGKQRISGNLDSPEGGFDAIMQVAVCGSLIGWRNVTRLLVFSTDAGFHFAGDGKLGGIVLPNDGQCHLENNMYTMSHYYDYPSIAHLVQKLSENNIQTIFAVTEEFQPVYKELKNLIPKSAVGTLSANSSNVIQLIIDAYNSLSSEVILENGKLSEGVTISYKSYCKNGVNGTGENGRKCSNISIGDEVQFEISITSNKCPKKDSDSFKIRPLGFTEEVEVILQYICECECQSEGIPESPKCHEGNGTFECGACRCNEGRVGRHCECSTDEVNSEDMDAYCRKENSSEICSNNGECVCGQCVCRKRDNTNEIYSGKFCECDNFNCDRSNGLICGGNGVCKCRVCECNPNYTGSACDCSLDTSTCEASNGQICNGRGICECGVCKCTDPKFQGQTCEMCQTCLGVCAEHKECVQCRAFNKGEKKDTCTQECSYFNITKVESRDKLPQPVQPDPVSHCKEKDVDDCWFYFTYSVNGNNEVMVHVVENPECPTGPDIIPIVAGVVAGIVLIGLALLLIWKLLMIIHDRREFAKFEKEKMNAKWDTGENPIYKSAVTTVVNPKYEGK
beta1 integrin on mammary epithelial cells (MECs), sequence (P09055 21-798 limits assumed): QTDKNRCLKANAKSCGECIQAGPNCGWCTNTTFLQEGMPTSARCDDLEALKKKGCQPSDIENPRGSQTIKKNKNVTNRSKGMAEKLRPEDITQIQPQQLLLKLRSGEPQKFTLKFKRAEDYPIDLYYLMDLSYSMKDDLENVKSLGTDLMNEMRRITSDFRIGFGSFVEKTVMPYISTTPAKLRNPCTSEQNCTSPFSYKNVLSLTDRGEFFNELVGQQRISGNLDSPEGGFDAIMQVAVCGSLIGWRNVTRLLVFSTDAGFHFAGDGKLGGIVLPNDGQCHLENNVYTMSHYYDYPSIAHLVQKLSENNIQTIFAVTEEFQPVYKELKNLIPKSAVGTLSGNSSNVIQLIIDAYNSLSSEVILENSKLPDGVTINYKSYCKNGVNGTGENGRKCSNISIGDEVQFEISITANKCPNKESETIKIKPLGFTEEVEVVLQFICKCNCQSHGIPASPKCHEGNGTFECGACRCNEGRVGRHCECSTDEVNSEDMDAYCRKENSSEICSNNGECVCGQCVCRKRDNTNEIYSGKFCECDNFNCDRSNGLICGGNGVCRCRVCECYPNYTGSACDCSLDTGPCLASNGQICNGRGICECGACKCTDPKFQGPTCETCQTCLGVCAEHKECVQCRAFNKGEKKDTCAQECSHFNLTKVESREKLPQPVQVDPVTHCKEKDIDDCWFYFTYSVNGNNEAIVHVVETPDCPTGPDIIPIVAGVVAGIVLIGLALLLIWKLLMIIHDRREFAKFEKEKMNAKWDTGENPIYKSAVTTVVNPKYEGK

On to “rhodamine-labeled laminin-111 (from UniProt P19137 25-3083; P02469 22-1786; P02468 34-1607) (ligand)”, for which, in assay [1], the MFI of internalized Rhod-Ln, flow cytometry, LN18 cells was 0.145 MFI and the MFI of internalized Rhod-Ln, flow cytometry, MDA-MB-231 cells is 0.1 MFI.

In assay [2], “rhodamine-labeled laminin-111, P19137 25-3083; P02469 22-1786; P02468 34-1607” displayed an MFI of internalized Rhod-Ln, flow cytometry, LN18 cells of 1.49 MFI; an MFI of internalized Rhod-Ln, flow cytometry, MDA-MB-231 cells of 6.82 MFI; an increase in MFI of internalized laminin, LARGE-expressing against vector LN18 cells of 10 fold; an increase in MFI of internalized laminin, LARGE-expressing against vector MDA-MB-231 cells of 68 fold. Moreover, in assay [3], the MFI of internalized laminin, flow cytometry, E3D1cre19 cells stood at 26.8 MFI and the change in laminin internalization on re-expression of WT β1 integrin in β1 int-/- cells is 20 % increase. In assay [4], this substance displayed a compiled MFI of internalized Rhod-Ln, DG-expressing against DG-lacking MEpG cells of 4 fold; a compiled mean fluorescence intensity (MFI) of internalized Rhod-Ln, flow cytometry, MEpG cells of 18 MFI; a laminin internalization, compiled mean fluorescence intensity flow cytometry data of 380 % more.

Hat2/5 antibody registered a Ln internalization, cellular fluorescence intensity of Rhod-Ln by flow cytometry, normalized to Ln alone control in assay [5] of 36 % decrease.

The values are drawn from US20150374845A1.
